{
  "source": "patent US20230071609A1",
  "about": "(Genentech, published 2023)",
  "binders": {"B1": {"name": "antibody 3.3A8 (antibody, V domains shown)", "VH": "QVQFQQSGAELVRPGASVKVTCKALGYTFSNYEIHWVRQPPVHGLEWIGAIHPGNGVTAYNQMFKGRATLAADKSSSTAYMELSSLTSEDSAVYYCTENFDYWGQGTALTVSS", "VL": "DVVVTQTPLSLPVSFGDQVSISCRSSQSLTNSYGITYLSWFLLKPGQSPQLLIYEISNRFSGVPDRFSGSGSGTDFTLKISTIKPEDLGVYFCLQGTHQPFTFGAGTKLEIKR", "notes": "Mouse mAb, cloned as murine IgG2a LALAPG; also called MAD antibody 3.3A8"}},
  "key": {"[1]": {"target": "T1, circulating APOL1 in normal human serum (human, UniProt O14791 28-398)", "T1 sequence (looked up)": "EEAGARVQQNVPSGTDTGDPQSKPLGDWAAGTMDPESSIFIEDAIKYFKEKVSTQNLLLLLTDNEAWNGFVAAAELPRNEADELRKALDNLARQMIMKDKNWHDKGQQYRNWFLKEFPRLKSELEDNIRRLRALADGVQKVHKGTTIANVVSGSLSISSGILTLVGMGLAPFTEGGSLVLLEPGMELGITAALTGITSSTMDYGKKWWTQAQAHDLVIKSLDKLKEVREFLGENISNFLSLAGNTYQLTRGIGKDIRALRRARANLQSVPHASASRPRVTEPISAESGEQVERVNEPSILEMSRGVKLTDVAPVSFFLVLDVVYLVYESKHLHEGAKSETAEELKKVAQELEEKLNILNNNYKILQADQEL", "test": "cell-based or functional assay"}, "APOL6-myc-FLAG": {"target": "T2, APOL6-myc-FLAG (human, UniProt Q9BWW8 1-343)", "T2 construct": "whole, on cells; In fixed, permeabilized transfected COS cells; untagged APOL6 in the western blots; not shown: C-terminal myc-FLAG tag", "T2 sequence (looked up)": "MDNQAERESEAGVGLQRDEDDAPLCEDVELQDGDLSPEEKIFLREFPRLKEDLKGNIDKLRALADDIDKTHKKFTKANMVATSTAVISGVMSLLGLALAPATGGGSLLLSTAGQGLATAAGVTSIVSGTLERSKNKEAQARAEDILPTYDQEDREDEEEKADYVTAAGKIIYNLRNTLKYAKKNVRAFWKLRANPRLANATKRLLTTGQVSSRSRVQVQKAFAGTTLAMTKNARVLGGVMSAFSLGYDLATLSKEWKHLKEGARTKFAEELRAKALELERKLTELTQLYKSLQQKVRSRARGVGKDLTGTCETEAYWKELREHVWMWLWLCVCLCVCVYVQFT", "test": "immunofluorescence on transfected COS cells; grade", "source_text": "COS cells were transfected as in FIG. 31A except APOL1 and APOL2 were also C-terminally myc-FLAG tagged. Overlays of APOL with epitope tags: either mouse anti-FLAG-M2 or mouse anti-myc 9E10 for anti-APOL1 rabmabs; or rabbit anti-Myc 71D10 in conjunction with mouse anti-APOL1. Signals indicate the two antibodies overlap (i.e. anti-APOL1 cross-reacts with that APOL); signals (epitope tag only) indicate no cross-reactivity. Alexa647 anti-rabbit or mouse were used for the tags to rule out the possibility that any colocalization was a bleed-through artifact. Sparsely transfected areas were imaged to permit evaluation of background staining in adjacent untransfected cells—DAPI nuclear staining identifies both untransfected and transfected cell nuclei. […] Note that none of the antibodies cross-reacted with the more distantly related APOL6. *, APOL2-myc-FLAG is presumably misfolded, since it is not as cross-reactive as untagged APOL2 (compare FIG. 31A) with several antibodies. Commercial antibodies are Sigma HPA018885, Epitomics EPR2907 (2) (Epito) and Proteintech 11486-2-AP (Ptech).\nCells were plated on LabTekII (Nalge Nunc 154534) slides and fixed at 70-100% confluency. For mAb screening, cells were fixed/permeabilized for 5 min in −20° C. methanol (EMD MX0485-6). For all other experiments, cells were fixed in 3% paraformaldehyde in PBS (EMS 15710) for 20 mins at room temperature, quenched with 50 mM NH₄Cl in PBS for 10 mins, then permeabilized with 0.1% TX-100 in PBS for 4 mins or for 1h in saponin buffer [0.4% saponin (Sigma S7900), 1% bovine serum albumin (BSA; Sigma A2153), 2% fetal bovine serum (Seradigm) in PBS]. First antibodies (stored sterile at 4° C.) were applied for 1 h at room temperature, at 1 μg/ml for screening on transfected cells or at subsequently optimized concentrations for detecting endogenous APOL1. After 3×10 min washes in PBS (for Methanol or TX-100 protocols) or saponin buffer (saponin protocol), secondary antibodies were applied at 1.88 μg/ml for 1 h at room temperature, washed 3× and mounted under No. 1.5 coverslips in ProLong Gold with DAPI (4′,6-diamidino-2-phenylindole; Life Technologies P36931)."}, "[2]": {"target": "T3, untagged APOL1-G0, KIK variant, transiently expressed (COS cells) (human, UniProt O14791 29-398)", "T3 construct": "Origene SC109941 clone with E150K, M228I, R255K", "T3 chain": "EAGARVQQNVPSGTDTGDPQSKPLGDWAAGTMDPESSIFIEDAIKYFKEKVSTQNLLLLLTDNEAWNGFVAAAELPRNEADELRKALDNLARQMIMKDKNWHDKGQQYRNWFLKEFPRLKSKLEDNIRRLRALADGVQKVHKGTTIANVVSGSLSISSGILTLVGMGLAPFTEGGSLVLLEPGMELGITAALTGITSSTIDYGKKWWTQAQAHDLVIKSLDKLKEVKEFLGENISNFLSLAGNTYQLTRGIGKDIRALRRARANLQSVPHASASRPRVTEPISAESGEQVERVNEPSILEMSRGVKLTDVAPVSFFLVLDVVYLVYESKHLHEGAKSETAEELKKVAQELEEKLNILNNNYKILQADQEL", "test": "immunofluorescence on transfected COS cells, 1 µg/ml; grade"}, "[3]": {"target": "T4, gD-SRA-ID-GPI (construct e) (human, UniProt O14791 305-398, C-terminal GPI anchor)", "T4 sequence": "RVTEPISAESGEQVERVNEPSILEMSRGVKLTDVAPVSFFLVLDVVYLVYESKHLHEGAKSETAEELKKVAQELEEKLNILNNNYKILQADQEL", "test": "flow cytometry, live CHO cells; 3.3A8 is the representative for the C-terminus of MAD", "protocol": "Stably transfected live (not fixed or permeabilized) CHO cells expressing the gD-iAPOL1-GPI constructs indicated in FIGS. 1A-1E after induction with 5 μg/ml dox for 48 h, showing differential antibody binding at 5 μg/ml. […] White histograms are Alexa488 anti-mouse or anti-rabbit secondaries only; grey histograms are the anti-APOL1 signals. A representative histogram for each category is shown: 3.7D6 for PFD; 3.3A8 for C-terminus of MAD, 3.5H9 for N-terminus of MAD; 3.1C1 for SRA-ID; 3.2D4 for multi-domain; 3.3F7 for conformational and 3.5B10 for FACS-negative (FACS-ve). The prefix 3 in the name of the antibodies denotes murine monoclonals from Method #3 (as shown in Example 1 below); other antibodies (not illustrated here) starting with the number 4 are murine monoclonals derived from mice additionally boosted with SRA-ID protein; and prefix 5-named antibodies are rabbit monoclonals from Method #5 (Table 2A; and Example 2). […] The Sigma polyclonal (HPA018885, raised to aa 263-387) and the Epitomics rabbit monoclonal (EPR2907(2), raised to an undisclosed peptide) are SRA-ID binders. […]\nCells were harvested with 5 mM EDTA in PBS, washed once with growth media and twice with PBS. […] Signals were read in a FACSCalibur3 (Becton Dickinson), with the exception of FIG. 8A and FIG. 14, which used a FACSCelesta, and data was analyzed using FlowJo v8.4.5."}},
  "data": [
    {"binder": "B1", "values": [
      {"measurement": "IC50 of blocking of serum APOL1-mediated trypanolysis (Alamar Blue)", "setting": "[1]", "value": 0.4, "unit": "nM"},
      {"measurement": "binding result", "setting": "APOL6-myc-FLAG", "value": "no binding (tested: 1 µg/ml)"},
      {"measurement": "binding result", "setting": "[2]", "value": "binds"},
      {"measurement": "binding result", "setting": "[3]", "value": "no binding (tested: 5 µg/ml)"}
    ]}
  ]
}
